# According to article PMC6041257:
# Molecular target: SUFU (UniProt Q9UMX1)
# Experiment: co-immunoprecipitation (assumed)
# Conditions: reference: GLI1-WT; sites S201,S204,S243
substance,measurement,value
GLI1 (from UniProt P08151) GLI1-S201/204/243A,binding against the reference,weaker
